Results from publication PMC3801112.

B1: 13 mer RNA (ssRNA)
RNA: AUAGCCUCAACCG
B2: 13 mer poly-A RNA (ssRNA)
RNA: AAAAAAAAAAAAA

Assays:
[1] = biological target: T1, PiCypA (cyclophilin A-like protein) (Piriformospora indica, UniProt C6KGV3 1-164); assay: ITC
[2] = biological target: T1, PiCypA (cyclophilin A-like protein); assay: ITC; remark: listed apart in the source

Binder | Kd [1] [µM] | binding result [2]
B1 | 22.5 | 
B2 |  | no binding
